According to US12679878B2, “CRF2 receptor agonists and their use in therapy” (SANOFI, priority 2020, dated 2026):
Starred links: 1 amine or outer side, 2 acyl side, 3 side chain; linkers in the order of their positions; H or OH if unused. Non-standard residues stand in square brackets, D forms with d. Groups on a side chain read outwards from the residue. No end group written: not given here. *: point of attachment. C20 diacid = O=C(O)CCCCCCCCCCCCCCCCCCC(=O)*; C18 diacid = O=C(O)CCCCCCCCCCCCCCCCC(=O)*; γGlu = O=C(O)[C@H](CCC(=O)[*:2])N[*:1]; AEEA = NCCOCCOCC(=O)O; Aib = CC(C)(N)C(=O)O

B1: peptide of SEQ ID NO: 69 (peptide)
peptide: IVLSLDVPIKLK([AEEA-AEEA-γGlu-C18 diacid])K[Aib]LLEQERQKKQREQAETNKQILAQV-NH2
modifications: N-terminus assumed
SMILES: CC[C@H](C)[C@H](N)C(=O)N[C@H](C(=O)N[C@@H](CC(C)C)C(=O)N[C@@H](CO)C(=O)N[C@@H](CC(C)C)C(=O)N[C@@H](CC(=O)O)C(=O)N[C@H](C(=O)N1CCC[C@H]1C(=O)N[C@H](C(=O)N[C@@H](CCCCN)C(=O)N[C@@H](CC(C)C)C(=O)N[C@@H](CCCCNC(=O)COCCOCCNC(=O)COCCOCCNC(=O)CC[C@H](NC(=O)CCCCCCCCCCCCCCCCC(=O)O)C(=O)O)C(=O)N[C@@H](CCCCN)C(=O)NC(C)(C)C(=O)N[C@@H](CC(C)C)C(=O)N[C@@H](CC(C)C)C(=O)N[C@@H](CCC(=O)O)C(=O)N[C@@H](CCC(N)=O)C(=O)N[C@@H](CCC(=O)O)C(=O)N[C@@H](CCCNC(=N)N)C(=O)N[C@@H](CCC(N)=O)C(=O)N[C@@H](CCCCN)C(=O)N[C@@H](CCCCN)C(=O)N[C@@H](CCC(N)=O)C(=O)N[C@@H](CCCNC(=N)N)C(=O)N[C@@H](CCC(=O)O)C(=O)N[C@@H](CCC(N)=O)C(=O)N[C@@H](C)C(=O)N[C@@H](CCC(=O)O)C(=O)N[C@H](C(=O)N[C@@H](CC(N)=O)C(=O)N[C@@H](CCCCN)C(=O)N[C@@H](CCC(N)=O)C(=O)N[C@H](C(=O)N[C@@H](CC(C)C)C(=O)N[C@@H](C)C(=O)N[C@@H](CCC(N)=O)C(=O)N[C@H](C(N)=O)C(C)C)[C@@H](C)CC)[C@@H](C)O)[C@@H](C)CC)C(C)C)C(C)C
B2: peptide of SEQ ID NO: 53 (peptide)
peptide: FTLSLDVPTKIK([AEEA-AEEA-γGlu-C18 diacid])QILLKQQKQKKERQQAETNKQLLERV-NH2
modifications: N-terminus assumed
SMILES: CC[C@H](C)[C@H](NC(=O)[C@H](CCC(N)=O)NC(=O)[C@H](CCCCNC(=O)COCCOCCNC(=O)COCCOCCNC(=O)CC[C@H](NC(=O)CCCCCCCCCCCCCCCCC(=O)O)C(=O)O)NC(=O)[C@@H](NC(=O)[C@H](CCCCN)NC(=O)[C@@H](NC(=O)[C@@H]1CCCN1C(=O)[C@@H](NC(=O)[C@H](CC(=O)O)NC(=O)[C@H](CC(C)C)NC(=O)[C@H](CO)NC(=O)[C@H](CC(C)C)NC(=O)[C@@H](NC(=O)[C@@H](N)Cc1ccccc1)[C@@H](C)O)C(C)C)[C@@H](C)O)[C@@H](C)CC)C(=O)N[C@@H](CC(C)C)C(=O)N[C@@H](CC(C)C)C(=O)N[C@@H](CCCCN)C(=O)N[C@@H](CCC(N)=O)C(=O)N[C@@H](CCC(N)=O)C(=O)N[C@@H](CCCCN)C(=O)N[C@@H](CCC(N)=O)C(=O)N[C@@H](CCCCN)C(=O)N[C@@H](CCCCN)C(=O)N[C@@H](CCC(=O)O)C(=O)N[C@@H](CCCNC(=N)N)C(=O)N[C@@H](CCC(N)=O)C(=O)N[C@@H](CCC(N)=O)C(=O)N[C@@H](C)C(=O)N[C@@H](CCC(=O)O)C(=O)N[C@H](C(=O)N[C@@H](CC(N)=O)C(=O)N[C@@H](CCCCN)C(=O)N[C@@H](CCC(N)=O)C(=O)N[C@@H](CC(C)C)C(=O)N[C@@H](CC(C)C)C(=O)N[C@@H](CCC(=O)O)C(=O)N[C@@H](CCCNC(=N)N)C(=O)N[C@H](C(N)=O)C(C)C)[C@@H](C)O
B3: peptide of SEQ ID NO: 54 (peptide)
peptide: FTLSLDVPIKLK([AEEA-AEEA-γGlu-C18 diacid])QILLKQQKQKKERQQAETNVQLLERV-NH2
modifications: N-terminus assumed
SMILES: CC[C@H](C)[C@H](NC(=O)[C@H](CCC(N)=O)NC(=O)[C@H](CCCCNC(=O)COCCOCCNC(=O)COCCOCCNC(=O)CC[C@H](NC(=O)CCCCCCCCCCCCCCCCC(=O)O)C(=O)O)NC(=O)[C@H](CC(C)C)NC(=O)[C@H](CCCCN)NC(=O)[C@@H](NC(=O)[C@@H]1CCCN1C(=O)[C@@H](NC(=O)[C@H](CC(=O)O)NC(=O)[C@H](CC(C)C)NC(=O)[C@H](CO)NC(=O)[C@H](CC(C)C)NC(=O)[C@@H](NC(=O)[C@@H](N)Cc1ccccc1)[C@@H](C)O)C(C)C)[C@@H](C)CC)C(=O)N[C@@H](CC(C)C)C(=O)N[C@@H](CC(C)C)C(=O)N[C@@H](CCCCN)C(=O)N[C@@H](CCC(N)=O)C(=O)N[C@@H](CCC(N)=O)C(=O)N[C@@H](CCCCN)C(=O)N[C@@H](CCC(N)=O)C(=O)N[C@@H](CCCCN)C(=O)N[C@@H](CCCCN)C(=O)N[C@@H](CCC(=O)O)C(=O)N[C@@H](CCCNC(=N)N)C(=O)N[C@@H](CCC(N)=O)C(=O)N[C@@H](CCC(N)=O)C(=O)N[C@@H](C)C(=O)N[C@@H](CCC(=O)O)C(=O)N[C@H](C(=O)N[C@@H](CC(N)=O)C(=O)N[C@H](C(=O)N[C@@H](CCC(N)=O)C(=O)N[C@@H](CC(C)C)C(=O)N[C@@H](CC(C)C)C(=O)N[C@@H](CCC(=O)O)C(=O)N[C@@H](CCCNC(=N)N)C(=O)N[C@H](C(N)=O)C(C)C)C(C)C)[C@@H](C)O
B4: peptide of SEQ ID NO: 67 (peptide)
peptide: IVLSLDVPIKLK([AEEA-AEEA-γGlu-C18 diacid])QILLEQEKQKKQREQAETNKQILAQV-NH2
modifications: N-terminus assumed
SMILES: CC[C@H](C)[C@H](N)C(=O)N[C@H](C(=O)N[C@@H](CC(C)C)C(=O)N[C@@H](CO)C(=O)N[C@@H](CC(C)C)C(=O)N[C@@H](CC(=O)O)C(=O)N[C@H](C(=O)N1CCC[C@H]1C(=O)N[C@H](C(=O)N[C@@H](CCCCN)C(=O)N[C@@H](CC(C)C)C(=O)N[C@@H](CCCCNC(=O)COCCOCCNC(=O)COCCOCCNC(=O)CC[C@H](NC(=O)CCCCCCCCCCCCCCCCC(=O)O)C(=O)O)C(=O)N[C@@H](CCC(N)=O)C(=O)N[C@H](C(=O)N[C@@H](CC(C)C)C(=O)N[C@@H](CC(C)C)C(=O)N[C@@H](CCC(=O)O)C(=O)N[C@@H](CCC(N)=O)C(=O)N[C@@H](CCC(=O)O)C(=O)N[C@@H](CCCCN)C(=O)N[C@@H](CCC(N)=O)C(=O)N[C@@H](CCCCN)C(=O)N[C@@H](CCCCN)C(=O)N[C@@H](CCC(N)=O)C(=O)N[C@@H](CCCNC(=N)N)C(=O)N[C@@H](CCC(=O)O)C(=O)N[C@@H](CCC(N)=O)C(=O)N[C@@H](C)C(=O)N[C@@H](CCC(=O)O)C(=O)N[C@H](C(=O)N[C@@H](CC(N)=O)C(=O)N[C@@H](CCCCN)C(=O)N[C@@H](CCC(N)=O)C(=O)N[C@H](C(=O)N[C@@H](CC(C)C)C(=O)N[C@@H](C)C(=O)N[C@@H](CCC(N)=O)C(=O)N[C@H](C(N)=O)C(C)C)[C@@H](C)CC)[C@@H](C)O)[C@@H](C)CC)[C@@H](C)CC)C(C)C)C(C)C

Each binder was assayed against rat CRF2R α receptor (rat, UniProt P47866 20-411) (assay: cell-based or functional assay).
Chain of rat CRF2R α receptor (P47866 20-411): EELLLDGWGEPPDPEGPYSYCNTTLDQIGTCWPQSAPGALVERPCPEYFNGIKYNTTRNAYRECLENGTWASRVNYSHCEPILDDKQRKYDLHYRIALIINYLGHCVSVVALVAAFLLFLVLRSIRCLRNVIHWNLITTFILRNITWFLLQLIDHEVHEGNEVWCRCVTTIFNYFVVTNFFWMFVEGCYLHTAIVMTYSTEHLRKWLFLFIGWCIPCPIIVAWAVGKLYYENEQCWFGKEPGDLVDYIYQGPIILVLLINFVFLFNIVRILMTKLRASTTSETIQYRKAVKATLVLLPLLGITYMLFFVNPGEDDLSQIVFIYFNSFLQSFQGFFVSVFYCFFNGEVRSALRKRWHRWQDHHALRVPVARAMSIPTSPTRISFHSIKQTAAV

Binder	EC50 [nM], 0% HSA (cAMP, A7R5 cells)
B1	7.33 nM
B2	1.32 nM
B3	1.51 nM
FTLSLDVPTKIK([AEEA-AEEA-γGlu-C20 diacid])QILLKQQKQKKERQQAETNKQLLERV-NH2 [peptide of SEQ ID NO: 61]	0.94 nM
B4	0.66 nM
FTLSLDVPIKLK([AEEA-AEEA-γGlu-C20 diacid])QILLEQQKQKKERQQAETNVQLLERV-NH2 [peptide of SEQ ID NO: 63]	4.73 nM
FTLSLDVPIKLK([AEEA-AEEA-γGlu-C20 diacid])QILLKQQKQKKERQQAETNVQLLERV-NH2 [peptide of SEQ ID NO: 62]	2.9 nM
FTLSLDVPTKIK([AEEA-AEEA-γGlu-C20 diacid])QILFKQQKQKKERQQAEKNKQLLEQI-NH2 [peptide of SEQ ID NO: 58]	0.72 nM
FTLSLDVPTKIK([AEEA-AEEA-γGlu-C20 diacid])QILLKQQKQKKERQQAEKNKQLLERV-NH2 [peptide of SEQ ID NO: 60]	1.35 nM

These binders were tested against T1, anti-target CRF1R receptor (UniProt P34998 24-415, limits assumed) (assay: cell-based or functional assay).
T1 sequence (looked up): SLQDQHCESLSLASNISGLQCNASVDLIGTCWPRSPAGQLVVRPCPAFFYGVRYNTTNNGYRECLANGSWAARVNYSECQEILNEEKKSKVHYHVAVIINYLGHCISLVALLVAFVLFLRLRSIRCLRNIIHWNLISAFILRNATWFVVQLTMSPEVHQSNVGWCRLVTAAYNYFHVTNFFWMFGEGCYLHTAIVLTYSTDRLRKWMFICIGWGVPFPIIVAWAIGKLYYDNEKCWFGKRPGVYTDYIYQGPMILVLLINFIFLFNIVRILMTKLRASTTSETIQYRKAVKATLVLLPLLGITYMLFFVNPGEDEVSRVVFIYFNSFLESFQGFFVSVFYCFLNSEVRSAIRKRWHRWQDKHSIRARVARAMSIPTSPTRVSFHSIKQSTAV

Binder	EC50[nM] 0% HSA (cAMP, CRF1R-overexpression CHO cells)	Emax (%) (cAMP, CRF1R-overexpression CHO cells)
B1	> 1000 nM	0.02%
B2	> 1000 nM	4.14%
B3	> 1000 nM	2.72%
FTLSLDVPTKIK([AEEA-AEEA-γGlu-C20 diacid])QILLKQQKQKKERQQAETNKQLLERV-NH2 [peptide of SEQ ID NO: 61]	> 1000 nM	3.31%
B4	> 1000 nM	9.18%
FTLSLDVPIKLK([AEEA-AEEA-γGlu-C20 diacid])QILLEQQKQKKERQQAETNVQLLERV-NH2 [peptide of SEQ ID NO: 63]	> 1000 nM	4.68%
FTLSLDVPIKLK([AEEA-AEEA-γGlu-C20 diacid])QILLKQQKQKKERQQAETNVQLLERV-NH2 [peptide of SEQ ID NO: 62]	> 1000 nM	2.28%
FTLSLDVPTKIK([AEEA-AEEA-γGlu-C20 diacid])QILFKQQKQKKERQQAEKNKQLLEQI-NH2 [peptide of SEQ ID NO: 58]	> 1000 nM	9.12%
FTLSLDVPTKIK([AEEA-AEEA-γGlu-C20 diacid])QILLKQQKQKKERQQAEKNKQLLERV-NH2 [peptide of SEQ ID NO: 60]	> 1000 nM	4.84%
